The results in this text go back to patent US20220380801A1, “TRIPARTITE SYSTEMS FOR PROTEIN DIMERIZATION AND METHODS OF USE” (priority 2019, published 2022).

What all share (conditions): remark: other sources report otherwise
In assay [1] the target is T1, HCV NS3/4A PR (S139A):simeprevir complex (Hepatitis C virus subtype 1a).
The target in assay [2] is T1, HCV NS3/4A PR (S139A):simeprevir …. The source holds these as a separate data set.
Assay [3] has the same target. Description: SPR Biacore 8K, PRSIM immobilised, protease flowed with 10 nM simeprevir. For orientation: SPR reads the build-up and loss of mass on a sensor chip optically.
Assay [4] has the same target. The experiment in a line: phage ELISA. (In general: An ELISA detects its analyte on a solid surface through an enzyme-linked reagent.)
Assay [5] shares this target. This is another data set of the same source.
Assay [6] has the same target. Description: HTRF, with simeprevir.
Assay [7] shares this target. This is another data set of the same source.
The target is the same in assay [8]. This is another data set of the same source.
Assay [9] addresses HCV NS3/4A PR K136H (S139A background), in the presence of simeprevir (Hepatitis C virus subtype 1a).

Like-named read-outs stand apart in the source and are kept apart here.

B1: PRSIM_23 (designed binder)
chain: RLDAPSQIEVKDVTDTTALITWVDPRYDDIWWFELTYGIKDVPGDRTTIKLYLNDPYYSIGNLKPDTEYEVSLISYTGDSYSRSGSNPAKITFKTGL
In the case of B1, the EC50 (read off the curve) was found to be 2 nM in assay [1], 3 nM in [8] and 4 nM in assay [9]. For the same molecule, the Simeprevir EC50 for induction of heterodimerisation in assay [2] is 4.03 nM; in assay [5], 4.53 nM. For the same molecule, the Kd turned out to be 6.3 nM in [3] and 5.4 nM in [7]. In assay [3], this molecule had a koff of 0.0318 s⁻¹. Besides, the kon in [3] came out at 5.03e+06 M⁻¹ s⁻¹. Further, the Binding fold change [(HCV protease + Simeprevir binding)/HCV protease alone] in [4] came out at 23.8 fold. In addition, the HTRF max. signal (% delta F) in assay [6] amounted to 1570 % delta F.

As a reminder, the EC50 (read off the curve) is the concentration at which the effect is half-maximal. The Kd is the concentration at which binding is half-saturated. Read a high Kd as weaker binding. For orientation: koff means a measure of how fast the partners let go of each other. Read a low koff as a long-lived complex. What is called kon is a measure of how fast the partners come together.
